Source: the supplement of paper PMC11780869

Tested on: Bacillus subtilis
Assay: cleaved RNA product abundance (RNA/gDNA barcode ratio) relative to median wild-type variant (ratio to wild type); higher = more accumulation of the downstream cleavage product
Conditions: cleavage site: cggR-gapA (positions -7 to +36 mutated)
Procedure, shortened: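 Sequencing of barcodes from gel-selected, reverse-transcribed cleaved RNA and from genomic DNA, with UMI collapsing, yielded a per-construct RNA:gDNA ratio. Scaled to the median construct with the unmutated site, this ratio is the cleaved product abundance. The barcoded reporters (truncated aprE or tetM mRNAs with mutagenized RNase Y cleavage-site windows) were integrated into the B. subtilis chromosome, and cultures grew in LB at 37°C from OD600 0.0003 to 0.3.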

[1] = experiment (reporter, strain, medium): exp 2b: truncated aprE reporter, strain BJT200
[2] = experiment (reporter, strain, medium): exp 4a: truncated aprE reporter, strain BJT201 with 2% xylose (RNase J1 expressed)
[3] = experiment (reporter, strain, medium): exp 6: tetM reporter, strain 168

## ACAGACGAAGGAGCCGCAAAGAAGTTATTAAGGGATTAATAAGCCCTCAATATAAATATCTCTCACTTATTTAAA
[1]
  cleaved RNA product abundance: 0.453
[2]
  cleaved RNA product abundance: 0.667

## ACAGACGAAGGAGCCGCAAAGAAGTTATTAAGGGATTAATAATACCTCAATATAAATATCTCTCACTTATTTAAA
[1]
  cleaved RNA product abundance: 0.139
[2]
  cleaved RNA product abundance: 0.187

## ACAGACGAAGGAGCCGCAAAGAAGTTATTAAGGGATTAATAATCACTCAATATAAATATCTCTCACTTATTTAAA
[2]
  cleaved RNA product abundance: 0.129

## ACAGACGAAGGAGCCGCAAAGAAGTTATTAAGGGATTAATAATCCATCAATATAAATATCTCTCACTTATTTAAA
[1]
  cleaved RNA product abundance: 0.401
[2]
  cleaved RNA product abundance: 0.288

## ACAGACGAAGGAGCCGCAAAGAAGTTATTAAGGGATTAATAATCCCACAATATAAATATCTCTCACTTATTTAAA
[1]
  cleaved RNA product abundance: 0.238
[2]
  cleaved RNA product abundance: 0.347

## ACAGACGAAGGAGCCGCAAAGAAGTTATTAAGGGATTAATAATCCCCCAATATAAATATCTCTCACTTATTTAAA
[2]
  cleaved RNA product abundance: 0.272

## ACAGACGAAGGAGCCGCAAAGAAGTTATTAAGGGATTAATAATCCCGCAATATAAATATCTCTCACTTATTTAAA
[2]
  cleaved RNA product abundance: 0.225

## ACAGACGAAGGAGCCGCAAAGAAGTTATTAAGGGATTAATAATCCCTAAATATAAATATCTCTCACTTATTTAAA
[1]
  cleaved RNA product abundance: 0.535
[2]
  cleaved RNA product abundance: 0.745

## ACAGACGAAGGAGCCGCAAAGAAGTTATTAAGGGATTAATAATCCCTCAAAATAAATATCTCTCACTTATTTAAA
[1]
  cleaved RNA product abundance: 0.334
[2]
  cleaved RNA product abundance: 0.419

## ACAGACGAAGGAGCCGCAAAGAAGTTATTAAGGGATTAATAATCCCTCAACATAAATATCTCTCACTTATTTAAA
[2]
  cleaved RNA product abundance: 0.444

## ACAGACGAAGGAGCCGCAAAGAAGTTATTAAGGGATTAATAATCCCTCAAGATAAATATCTCTCACTTATTTAAA
[1]
  cleaved RNA product abundance: 0.203
[2]
  cleaved RNA product abundance: 0.254

## ACAGACGAAGGAGCCGCAAAGAAGTTATTAAGGGATTAATAATCCCTCAATATAAACATCTCTCACTTATTTAAA
[2]
  cleaved RNA product abundance: 0.803

## ACAGACGAAGGAGCCGCAAAGAAGTTATTAAGGGATTAATAATCCCTCAATATAAAGATCTCTCACTTATTTAAA
[1]
  cleaved RNA product abundance: 0.486
[2]
  cleaved RNA product abundance: 0.818

## ACAGACGAAGGAGCCGCAAAGAAGTTATTAAGGGATTAATAATCCCTCAATATAAATAACTCTCACTTATTTAAA
[1]
  cleaved RNA product abundance: 1.02
[2]
  cleaved RNA product abundance: 0.594

## ACAGACGAAGGAGCCGCAAAGAAGTTATTAAGGGATTAATAATCCCTCAATATAAATATATCTCACTTATTTAAA
[2]
  cleaved RNA product abundance: 1.23

## ACAGACGAAGGAGCCGCAAAGAAGTTATTAAGGGATTAATAATCCCTCAATATAAATATCTCTCACTTATTTAAA
[1]
  cleaved RNA product abundance: 0.996
[2]
  cleaved RNA product abundance: 0.958
[3]
  cleaved RNA product abundance: 1.09

## ACAGACGAAGGAGCCGCAAAGAAGTTATTAAGGGATTAATAATCCCTCAATATAAATCTCTCTCACTTATTTAAA
[2]
  cleaved RNA product abundance: 0.637

## ACAGACGAAGGAGCCGCAAAGAAGTTATTAAGGGATTAATAATCCCTCAATATAAATGTCTCTCACTTATTTAAA
[2]
  cleaved RNA product abundance: 0.707

## ACAGACGAAGGAGCCGCAAAGAAGTTATTAAGGGATTAATAATCCCTCAATATAAATTTCTCTCACTTATTTAAA
[1]
  cleaved RNA product abundance: 0.686
[2]
  cleaved RNA product abundance: 0.57

## ACAGACGAAGGAGCCGCAAAGAAGTTATTAAGGGATTAATAATCCCTCAATATAATTATCTCTCACTTATTTAAA
[2]
  cleaved RNA product abundance: 0.43

## ACAGACGAAGGAGCCGCAAAGAAGTTATTAAGGGATTAATAATCCCTCAATATACATATCTCTCACTTATTTAAA
[2]
  cleaved RNA product abundance: 0.799

## ACAGACGAAGGAGCCGCAAAGAAGTTATTAAGGGATTAATAATCCCTCAATATATATATCTCTCACTTATTTAAA
[2]
  cleaved RNA product abundance: 0.957

## ACAGACGAAGGAGCCGCAAAGAAGTTATTAAGGGATTAATAATCCCTCAATATCAATATCTCTCACTTATTTAAA
[2]
  cleaved RNA product abundance: 0.0629

## ACAGACGAAGGAGCCGCAAAGAAGTTATTAAGGGATTAATAATCCCTCAATCTAAATATCTCTCACTTATTTAAA
[1]
  cleaved RNA product abundance: 0.164

## ACAGACGAAGGAGCCGCAAAGAAGTTATTAAGGGATTAATAATCCCTCAATGTAAATATCTCTCACTTATTTAAA
[2]
  cleaved RNA product abundance: 0.108

## ACAGACGAAGGAGCCGCAAAGAAGTTATTAAGGGATTAATAATCCCTCAATTTAAATATCTCTCACTTATTTAAA
[2]
  cleaved RNA product abundance: 0.176

## ACAGACGAAGGAGCCGCAAAGAAGTTATTAAGGGATTAATAATCCCTCACTATAAATATCTCTCACTTATTTAAA
[1]
  cleaved RNA product abundance: 0.233
[2]
  cleaved RNA product abundance: 0.26

## ACAGACGAAGGAGCCGCAAAGAAGTTATTAAGGGATTAATAATCCCTCAGTATAAATATCTCTCACTTATTTAAA
[2]
  cleaved RNA product abundance: 0.224

## ACAGACGAAGGAGCCGCAAAGAAGTTATTAAGGGATTAATAATCCCTCATTATAAATATCTCTCACTTATTTAAA
[1]
  cleaved RNA product abundance: 0.247
[2]
  cleaved RNA product abundance: 0.534

## ACAGACGAAGGAGCCGCAAAGAAGTTATTAAGGGATTAATAATCCCTCCATATAAATATCTCTCACTTATTTAAA
[2]
  cleaved RNA product abundance: 0.197

## ACAGACGAAGGAGCCGCAAAGAAGTTATTAAGGGATTAATAATCCCTCGATATAAATATCTCTCACTTATTTAAA
[2]
  cleaved RNA product abundance: 0.594

## ACAGACGAAGGAGCCGCAAAGAAGTTATTAAGGGATTAATAATCCCTCTATATAAATATCTCTCACTTATTTAAA
[2]
  cleaved RNA product abundance: 0.547

## ACAGACGAAGGAGCCGCAAAGAAGTTATTAAGGGATTAATAATCCCTGAATATAAATATCTCTCACTTATTTAAA
[2]
  cleaved RNA product abundance: 0.768

## ACAGACGAAGGAGCCGCAAAGAAGTTATTAAGGGATTAATAATCCCTTAATATAAATATCTCTCACTTATTTAAA
[2]
  cleaved RNA product abundance: 0.563

## ACAGACGAAGGAGCCGCAAAGAAGTTATTAAGGGATTAATAATCCGTCAATATAAATATCTCTCACTTATTTAAA
[2]
  cleaved RNA product abundance: 0.165

## ACAGACGAAGGAGCCGCAAAGAAGTTATTAAGGGATTAATAATCCTTCAATATAAATATCTCTCACTTATTTAAA
[1]
  cleaved RNA product abundance: 0.431
[2]
  cleaved RNA product abundance: 0.39

## ACAGACGAAGGAGCCGCAAAGAAGTTATTAAGGGATTAATAATCGCTCAATATAAATATCTCTCACTTATTTAAA
[1]
  cleaved RNA product abundance: 0.109
[2]
  cleaved RNA product abundance: 0.0904

## ACAGACGAAGGAGCCGCAAAGAAGTTATTAAGGGATTAATAATCTCTCAATATAAATATCTCTCACTTATTTAAA
[1]
  cleaved RNA product abundance: 0.716

## ACAGACGAAGGAGCCGCAAAGAAGTTATTAAGGGATTAATAATGCCTCAATATAAATATCTCTCACTTATTTAAA
[1]
  cleaved RNA product abundance: 0.14
[2]
  cleaved RNA product abundance: 0.125

## ACAGACGAAGGAGCCGCAAAGAAGTTATTAAGGGATTAATAATTCCTCAATATAAATATCTCTCACTTATTTAAA
[1]
  cleaved RNA product abundance: 0.543
[2]
  cleaved RNA product abundance: 0.569

## ACAGACGAAGGAGCCGCAAAGAAGTTATTAAGGGATTAATATTCCCTCAATATAAATATCTCTCACTTATTTAAA
[2]
  cleaved RNA product abundance: 1.13

## ACAGACGAAGGAGCCGCAAAGAAGTTATTAAGGGATTAATCATCCCTCAATATAAATATCTCTCACTTATTTAAA
[2]
  cleaved RNA product abundance: 1.2

## ACAGACGAAGGAGCCGCAAAGAAGTTATTAAGGGATTATTAATCCCTCAATATAAATATCTCTCACTTATTTAAA
[1]
  cleaved RNA product abundance: 0.957
[2]
  cleaved RNA product abundance: 1.09

## ACAGACGAAGGAGCCGCAAAGAAGTTATTAAGGGATTGAATAATCCCTCAATATAAATATCTCTCACTTATTTAA
[2]
  cleaved RNA product abundance: 0.788

## ACAGACGAAGGAGCCGCAAAGAAGTTATTAAGGGATTGATAATCCCTCAATATAAATATCTCTCACTTATTTAAA
[2]
  cleaved RNA product abundance: 0.889

## ACAGACGAAGGAGCCGCAAAGAAGTTATTAAGGGATTTATAATCCCTCAATATAAATATCTCTCACTTATTTAAA
[2]
  cleaved RNA product abundance: 0.931

## ACAGACGAAGGAGCCGCAAAGAAGTTATTAAGGGCAGAATAATCCCTCAATATAAATATCTCTCACTTATTTAAA
[1]
  cleaved RNA product abundance: 0.174

## ACAGACGAAGGAGCCGCAAAGAAGTTATTAAGGGCTAAATAATCCCTCAATATAAATATCTCTCACTTATTTAAA
[1]
  cleaved RNA product abundance: 0.389
[2]
  cleaved RNA product abundance: 0.368

## ACAGACGAAGGAGCCGCAAAGAAGTTATTAAGGGCTGAAAAATCCCTCAATATAAATATCTCTCACTTATTTAAA
[1]
  cleaved RNA product abundance: 0.212

## ACAGACGAAGGAGCCGCAAAGAAGTTATTAAGGGCTGAACAATCCCTCAATATAAATATCTCTCACTTATTTAAA
[2]
  cleaved RNA product abundance: 0.156

## ACAGACGAAGGAGCCGCAAAGAAGTTATTAAGGGCTGAATAAACCCTCAATATAAATATCTCTCACTTATTTAAA
[2]
  cleaved RNA product abundance: 0.47

## ACAGACGAAGGAGCCGCAAAGAAGTTATTAAGGGCTGAATAACCCCTCAATATAAATATCTCTCACTTATTTAAA
[2]
  cleaved RNA product abundance: 0.424

## ACAGACGAAGGAGCCGCAAAGAAGTTATTAAGGGCTGAATAATCCATCAATATAAATATCTCTCACTTATTTAAA
[1]
  cleaved RNA product abundance: 0.084
[2]
  cleaved RNA product abundance: 0.0979

## ACAGACGAAGGAGCCGCAAAGAAGTTATTAAGGGCTGAATAATCCCACAATATAAATATCTCTCACTTATTTAAA
[2]
  cleaved RNA product abundance: 0.0873

## ACAGACGAAGGAGCCGCAAAGAAGTTATTAAGGGCTGAATAATCCCCCAATATAAATATCTCTCACTTATTTAAA
[2]
  cleaved RNA product abundance: 0.157

## ACAGACGAAGGAGCCGCAAAGAAGTTATTAAGGGCTGAATAATCCCTAAATATAAATATCTCTCACTTATTTAAA
[2]
  cleaved RNA product abundance: 0.537

## ACAGACGAAGGAGCCGCAAAGAAGTTATTAAGGGCTGAATAATCCCTCAATATAAATAACTCTCACTTATTTAAA
[2]
  cleaved RNA product abundance: 0.729

## ACAGACGAAGGAGCCGCAAAGAAGTTATTAAGGGCTGAATAATCCCTCAATATAAATATCTCTCACTTATTTAAA
[1]
  cleaved RNA product abundance: 0.587
[2]
  cleaved RNA product abundance: 0.593
[3]
  cleaved RNA product abundance: 0.473

## ACAGACGAAGGAGCCGCAAAGAAGTTATTAAGGGCTGAATAATCCCTCAATATACATATCTCTCACTTATTTAAA
[2]
  cleaved RNA product abundance: 0.433

## ACAGACGAAGGAGCCGCAAAGAAGTTATTAAGGGCTGAATAATCCCTCTATATAAATATCTCTCACTTATTTAAA
[2]
  cleaved RNA product abundance: 0.255
